Legend:
human TGF-β1 [1] = biological target: T1, human TGF-β1 (human, UniProt P01137 279-390); assay: cell-based or functional assay
[2] = biological target: human PD-L1 on CHO/PD-L1 cells (CS187108, Promega) (human, UniProt Q9NZQ7 19-290); assay: cell-based or functional assay
human TGF-β1 [3] = biological target: T1, human TGF-β1; assay: ELISA, plate coated with human TGF-β1, anti-human Fc-HRP, OD 450 nm
Procedure: a. […] Washing 3 times with 250 μl of 1×PBST, 250 μl of 5% milk PBS was added for blocking at 37° C. for 2 hours. c. […] Washing 3 times with 250 μl 1×PBST. e. 100 μl of Anti-human Fc antibody-HRP (1:4000) was added to each well and incubated for 40 minutes at 37° C. f. 100 μl of TMB was added into each well, incubated for 10 minutes at room temperature, and the reaction was stopped by adding 100 μl of 1 M H₂SO₄. g. The absorbance at 450 nm was measured on a microplate reader, and the data was analyzed by Graphpad Prism 5.

T1 sequence (P01137 279-390 limits assumed): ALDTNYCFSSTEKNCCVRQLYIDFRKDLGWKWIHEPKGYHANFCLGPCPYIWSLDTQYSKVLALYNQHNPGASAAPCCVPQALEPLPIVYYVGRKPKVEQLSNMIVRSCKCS
Sequence of human PD-L1 on CHO/PD-L1 cells (CS187108, Promega) (Q9NZQ7 19-290): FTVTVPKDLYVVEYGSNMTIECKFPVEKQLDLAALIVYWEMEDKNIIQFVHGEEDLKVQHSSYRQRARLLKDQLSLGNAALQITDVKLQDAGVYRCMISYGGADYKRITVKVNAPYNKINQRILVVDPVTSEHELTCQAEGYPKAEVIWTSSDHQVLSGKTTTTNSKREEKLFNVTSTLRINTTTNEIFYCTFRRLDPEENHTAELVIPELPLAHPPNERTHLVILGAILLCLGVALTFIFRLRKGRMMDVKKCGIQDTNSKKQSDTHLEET

B1: PD-L1 antibody (antibody, human IgG4 S228P, kappa, F234A L235A, V domains shown)
VH: QVQLVQSGAEVKKPGASVKVSCKASGYTFTSYWMHWVRQAPGQGLEWMGRIGPNSGFTSYNEKFKNRVTMTRDTSTSTVYMELSSLRSEDTAVYYCARGGSSYDYFDYWGQGTTVTVSS
VL: DIVLTQSPASLAVSPGQRATITCRASESVSIHGTHLMHWYQQKPGQPPKLLIYAASNLESGVPARFSGSGSGTDFTLTINPVEAEDTANYYCQQSFEDPLTFGQGTKLEIKR
notes: Human IgG4 with S228P, F234A, L235A and the C-terminal K mutated to A; also called Ab; PD-L1 antibody IgG4 (AA) (S228P)
For B1, the “TGFβ-induced pSMAD3 reporter activity (luciferase, HepG2 cells), IC50” value (human TGF-β1 [1]) was greater than 500 nM, the “EC50 (read off the curve), luminescence of the PD-1/PD-L1 blockade reporter assay” value [2] was roughly 0.3 nM and the binding result (human TGF-β1 [3]) was “no binding (tested: 1e6 pM (Log(pM) 6))”.

Reference: US20220017601A1 (JIANGSU HENGRUI MEDICINE, published 2022)
